Results reported in patent US20220145281A1, “NEW VACCINAL STRATEGY TO PREVENT OR TREAT RHUMATOID ARTHRITIS” (INSERM (Institut National de la Santé et de la Recherche …, priority 2019, published 2022).

How the values were obtained:
HLA-DRB1*01:01 = molecular target: T1, HLA-DRB1*01:01 (Homo sapiens, UniProt P01903+P01911, A100R/D57E/F55L/F60I/F76Y/I96L/L162R/M171V/P40L/Q125E/R42F/V115G/Y59C); assay: HLA-DR peptide-binding assay (ELISA); settings: positive binding = OD equal to the OD for the HA peptide
T1 construct: Purification of HLA-DRB1 molecules from lymphoblastoid cell lines; Total protein extracts were immunoprecipitated by anti-HLA-DR LB3.1 antibody; endogenous in cells; host or cells: JESTHOM lymphoblastoid cell line, HLA homozygous

HLA-DRB1*04:01 = molecular target: T2, HLA-DRB1*04:01 (Homo sapiens, UniProt P01903+P01911, A100K/A169T/F76Y/I96L/K127E/L162R/M171V/N62H/P40V/Q125Y/R42H/S133A/S149N/S66Y/V115G/V209L/W38E); assay: HLA-DR peptide-binding assay (ELISA); settings: positive binding = OD equal to the OD for the HA peptide
T2 construct: Purification of HLA-DRB1 molecules from lymphoblastoid cell lines; Total protein extracts were immunoprecipitated by anti-HLA-DR LB3.1 antibody; endogenous in cells; host or cells: SAVC lymphoblastoid cell line, HLA homozygous

HLA-DRB1*04:02 = HLA-DRB1*04:02 (Homo sapiens, UniProt P01903+P01911, A100E/A169T/F76Y/K127E/L162R/M171V/N62H/P40V/Q125Y/Q99D/R42H/S133A/S149N/S66Y/V209L/W38E); assay: HLA-DR peptide-binding assay (ELISA); settings: positive binding = OD equal to the OD for the HA peptide
HLA-DRB1*04:04 = HLA-DRB1*04:04 (Homo sapiens, UniProt P01903+P01911, A100R/A169T/F76Y/I96L/K127E/L162R/M171V/N62H/P40V/Q125Y/R42H/S133A/S149N/S66Y/V209L/W38E); assay: HLA-DR peptide-binding assay (ELISA); settings: positive binding = OD equal to the OD for the HA peptide
HLA-DRB1*07:01 = HLA-DRB1*07:01 (Homo sapiens, UniProt P01903+P01911, A100R/A102G/A103Q/D57E/D86V/E43K/F76Y/K127E/L162R/M171V/P40G/Q125H/Q99D/R33Q/R42Y/R54Q/S133A/S66F/T210M/V115G/Y107V/Y59L/Y89S); assay: HLA-DR peptide-binding assay (ELISA); settings: positive binding = OD equal to the OD for the HA peptide
[1] = test system: 5 purified HLA-DR molecules; assay: HLA-DR peptide-binding assay, panel of alleles and likelihood calculation per genotype; set-up: species or system human
[2] = test system: Mononuclear cells (PBLs) from patients and controls; assay: T cell proliferation assay (BRDU incorporation); type: cell-based, human; settings: healthy controls, 11, 5 μg/ml peptide, 6 days
Procedure: T cell proliferation assay. Mononuclear cells from patients were isolated from 20 ml of heparinized blood by centrifugation through Ficoll-Histopaque (Sigma Aldrich, St. Quentin-Fallavier, France). Cells were cultured at a density of 10^6 cells/ml in RPMI 1640 with 10% self-serum in the presence of 1 μg/ml of human PAD4 or human fibrinogen or PHA (phytohemagglutinin) or 5 μg/ml of PAD4 peptide. After 6 days of culture at 37° C., proliferative response to proteins was evaluated using the colorimetric bromodeoxyuridine kit (Roche Diagnostics, Meylan, France). Positive T cell responses were defined by optical densities (OD) higher than twice the ODs for cells cultured without protein or peptide.

[3] = molecular target: T3, HLA-DR molecule HLA-DRB1*01:01, purified from lymphoblastoid cell line JESTHOM (human); assay: ELISA: peptide coated on plate, purified HLA-DR added
T3 construct: Immunoprecipitated from detergent cell lysate with anti-HLA-DR LB3.1 and eluted at pH 2
Procedure: (§1) HLA-DR Peptide-binding assay. ELISA plates were coated with 10 μg of PAD4 or fibrinogen peptide/well and blocked in 1% bovine serum albumin (BSA). One microgram of purified HLA-DR molecule was added to plates. After washing, bound HLA-DR was detected by biotinylated anti HLA-DR antibody B8122 (Immunotech, Marseille, France), followed by peroxidase-conjugated avidin. Peroxidase-conjugated anti-mouse IgG and peroxidase-conjugated avidin were supplied by Sigma Aldrich (St. Quentin-Fallavier, France). Optical density was read at 405 nm. The binding of each of the purified HLA-DR alleles was assayed on ELISA plates coated with peptides from PAD4 or Fibrinogen (each in duplicate wells) and, as controls, 2 wells coated with a classical positive binder, influenza hemagglutinin (HA) peptide ([…]). Positive binding was defined as an OD value equal to the OD for the HA peptide.

[4] = molecular target: T4, HLA-DR molecule HLA-DRB1*04:01, purified from lymphoblastoid cell line SAVC (human); assay: as above
T4 construct: Immunoprecipitated from detergent cell lysate with anti-HLA-DR LB3.1 and eluted at pH 2
Procedure: as §1

[5] = molecular target: T5, HLA-DR molecule HLA-DRB1*04:02, purified from lymphoblastoid cell line YAR (human); assay: as above
T5 construct: Immunoprecipitated from detergent cell lysate with anti-HLA-DR LB3.1 and eluted at pH 2
Procedure: as §1

[6] = molecular target: T6, HLA-DR molecule HLA-DRB1*04:04, purified from lymphoblastoid cell line PEYSSON (human); assay: as above
T6 construct: Immunoprecipitated from detergent cell lysate with anti-HLA-DR LB3.1 and eluted at pH 2
Procedure: as §1

[7] = molecular target: T7, HLA-DR molecule HLA-DRB1*07:01, purified from lymphoblastoid cell line MOU (human); assay: as above
T7 construct: Immunoprecipitated from detergent cell lysate with anti-HLA-DR LB3.1 and eluted at pH 2
Procedure: as §1

CD4 T cells = assay: Flow cytometry analysis of whole blood samples stimulated with PAD4; type: cell-based, human; settings: 10 RA patients and 7 controls
Description: One patient with RA (2.4%) and none of the patients with psoriatic arthritis or healthy controls had proliferative response to citrullinated fibrinogen. To confirm that the proliferative response observed in PBLs cultured with PAD4 was due to T cells, we ran flow cytometry analysis in an extra 10 RA patients and 7 controls.

## DPGVEVTLTMKAASGSTGDQ (Synthetic peptide p8) [peptide 8, 20-mer peptide from human PAD4]
HLA-DRB1*01:01
  binding to HLA-DRB1*01:01: binds
HLA-DRB1*04:01
  binding to HLA-DRB1*04:01: binds
HLA-DRB1*04:02
  binding to HLA-DRB1*04:02: binds
HLA-DRB1*04:04
  binding to HLA-DRB1*04:04: binds
HLA-DRB1*07:01
  binding to HLA-DRB1*07:01: binds
[1]; HLA-DRB1*01:01, *04:01, *04:02, *04:04, *07:01
  binding to the five tested HLA-DRB1 alleles: bound all five tested HLA-DRB1 alleles
[2]
  subjects with T cell proliferative response to peptide (OD ratio higher than 2): 0/11 and no healthy control
[2]; listed as Peptide 8
  subjects with T cell proliferative response to peptide (OD ratio higher than 2): 0

## VRVFQATRGKLSSKCSVVLG (Synthetic Peptide 22) [20-mer peptide from human PAD4]
HLA-DRB1*04:01
  binding to HLA-DRB1*04:01: bind HLA-DRB1*04:01 only
[2]
  subjects with T cell proliferative response to peptide (OD ratio higher than 2): none of 11

B1: peptide 8 from PAD4 (DPGVEVTLTMKAASGSTGDQ) (peptide)
peptide: DPGVEVTLTMKAASGSTGDQ
notes: Synthetic 20-mer, coated on the ELISA plate (10 ug/well); also called p8; peptide p8
[3]
  binding result: binds
[4]
  binding result: binds
[5]
  binding result: binds
[6]
  binding result: binds
[7]
  binding result: binds

B2: peptide 22 from PAD4 (VRVFQATRGKLSSKCSVVLG) (peptide)
peptide: VRVFQATRGKLSSKCSVVLG
notes: Synthetic 20-mer, coated on the ELISA plate (10 ug/well); also called p22; peptide p22
[4]
  binding result: binds

B3: peptidyl arginine deiminase 4 (protein, listed as Homo sapiens)
chain: MAQGTLIRVTPEQPTHAVCVLGTLTQLDICSSAPEDCTSFSINASPGVVVDIAHSPPAKKKSTGSSTWPLDPGVEVTLTMKAASGSTGDQKVQISYYGPKTPPVKALLYLTAVEISLCADITRTGKVKPTRAVKDQRTWTWGPCGQGAILLVNCDRDNLESSAMDCEDDEVLDSEDLQDMSLMTLSTKTPKDFFTNHTLVLHVARSEMDKVRVFQATRGKLSSKCSVVLGPKWPSHYLMVPGGKHNMDFYVEALAFPDTDFPGLITLTISLLDTSNLELPEAVVFQDSVVFRVAPWIMTPNTQPPQEVYACSIFENEDFLKSVTTLAMKAKCKLTICPEEENMDDQWMQDEMEIGYIQAPHKTLPVVFDSPRNRGLKEFPIKRVMGPDFGYVTRGPQTGGISGLDSFGNLEVSPPVTVRGKEYPLGRILFGDSCYPSNDSRQMHQALQDFLSAQQVQAPVKLYSDWLSVGHVDEFLSFVPAPDRKGFRLLLASPRSCYKLFQEQQNEGHGEALLFEGIKKKKQQKIKNILSNKTLREHNSFVERCIDWNRELLKRELGLAESDIIDIPQLFKLKEFSKAEAFFPNMVNMLVLGKHLGIPKPFGPVINGRCCLEEKVCSLLEPLGLQCTFINDFFTYHIRHGEVHCGTNVRRKPFSFKWWNMVP
notes: Human PAD4 protein produced in baculovirus expression system
[1]; genotype DRB1*01:01/01:01
  Likelihood to bind at least one peptide from: 0.061
[1]; genotype DRB1*01:01/04:01
  Likelihood to bind at least one peptide from: 0.165
[1]; genotype DRB1*01:01/04:04
  Likelihood to bind at least one peptide from: 0.120
[1]; genotype DRB1*01:01/07
  Likelihood to bind at least one peptide from: 0.076
[1]; genotype DRB1*04:01/04:01
  Likelihood to bind at least one peptide from: 0.258
[1]; genotype DRB1*04:01/04:04
  Likelihood to bind at least one peptide from: 0.218
[1]; genotype DRB1*04:01/07
  Likelihood to bind at least one peptide from: 0.178
[1]; genotype DRB1*04:02/07
  Likelihood to bind at least one peptide from: 0.090
[1]; genotype DRB1*04:04/04:02
  Likelihood to bind at least one peptide from: 0.134
[1]; genotype DRB1*04:04/04:04
  Likelihood to bind at least one peptide from: 0.176
[1]; genotype DRB1*04:04/07
  Likelihood to bind at least one peptide from: 0.134
[1]; genotype DRB1*07/07
  Likelihood to bind at least one peptide from: 0.090
CD4 T cells
  expression of CD154 (T cell early activation marker) on CD4 T cells: increased expression of CD154
  production of TNF alpha by CD4 T cells: increased production of TNF alpha
